From article doi:10.1101/313882, “Cryptic adaptor protein interactions regulate DNA replication initiation” (bioRxiv, 2018)

Columns and labels:
[1] = target: the molecule itself; assay: cross-linking; purified DnaD^WHD or variant at 16 uM with 0.03%, 0.06%, 0.12% glutaraldehyde; 20 mM HEPES pH 7.7, 150 mM NaCl, 1 mM DTT, 1 mM EDTA, 5% glycerol; 15 minutes at room temperature; SDS-polyacrylamide gel, coomassie blue
[2] = target: the molecule itself; assay: SEC; size exclusion chromatogram of wild type DnaD^WHD or the ΔNT variant, absorbance at 280 nm (S2 Fig B)

B1: purified DnaD^WHD F51A (B. subtilis) (domain or fragment, UniProt P39787 1-128, looked up)
chain: MKKQQFIDMQEQGTSTIPNLLLTHYKQLGLNETELILLLKIKMHLEKGSYAPTPNQLQEGMSISVEECTNRLRMFIQKGFLFIEECEDQNGIKFEKYSLQPLWGKLYEYIQLAQNQTQERKAEGEQKS
notes: DnaD, B. subtilis, winged helix domain, amino acids 1-128, F51A; source: E. coli BL21 (DE3), purified (amylose, Ulp1 digestion, HiTrap Q, Sephacryl S-200); not shown: HIS6, N-terminal, cleaved; MBP, N-terminal, cleaved; SUMO, N-terminal, cleaved
**Q.** For B1, which “stoichiometry N” value [1] is on record?
**A.** 4

B2: purified DnaD^WHD I83A (B. subtilis) (domain or fragment, UniProt P39787 1-128, looked up)
chain: MKKQQFIDMQEQGTSTIPNLLLTHYKQLGLNETELILLLKIKMHLEKGSYFPTPNQLQEGMSISVEECTNRLRMFIQKGFLFAEECEDQNGIKFEKYSLQPLWGKLYEYIQLAQNQTQERKAEGEQKS
notes: DnaD, B. subtilis, winged helix domain, amino acids 1-128, I83A; source: E. coli BL21 (DE3), purified (amylose, Ulp1 digestion, HiTrap Q, Sephacryl S-200); not shown: HIS6, N-terminal, cleaved; MBP, N-terminal, cleaved; SUMO, N-terminal, cleaved
**Q.** With B2 as the protein, how does the “stoichiometry N” value [1] read?
**A.** 4

B3: purified DnaD^WHD, wild type (B. subtilis) (domain or fragment, UniProt P39787 1-128, looked up)
chain: MKKQQFIDMQEQGTSTIPNLLLTHYKQLGLNETELILLLKIKMHLEKGSYFPTPNQLQEGMSISVEECTNRLRMFIQKGFLFIEECEDQNGIKFEKYSLQPLWGKLYEYIQLAQNQTQERKAEGEQKS
notes: DnaD, B. subtilis, winged helix domain, amino acids 1-128; native N-terminus after Ulp1; also called WT; source: E. coli BL21 (DE3), purified (amylose, Ulp1 digestion, HiTrap Q, Sephacryl S-200); not shown: HIS6, N-terminal, cleaved; MBP, N-terminal, cleaved; SUMO, N-terminal, cleaved
**Q.** Does B3 bind [1]?
**A.** binds

B4: purified DnaD^WHD ΔNT variant (B. subtilis) (domain or fragment, UniProt P39787 19-128, looked up)
chain: NLLLTHYKQLGLNETELILLLKIKMHLEKGSYFPTPNQLQEGMSISVEECTNRLRMFIQKGFLFIEECEDQNGIKFEKYSLQPLWGKLYEYIQLAQNQTQERKAEGEQKS
notes: DnaD, B. subtilis, winged helix domain (1-128) without the N-terminal extension (residues 1-18); The limits 19-128 are worked out from the printed extension (1-18) and the limits of DnaD^WHD (1-128); the purification is that told for DnaD^WHD and its variants; source: E. coli BL21 (DE3), purified (amylose, Ulp1 digestion, HiTrap Q, Sephacryl S-200); not shown: HIS6, N-terminal, cleaved; MBP, …
**Q.** Which “stoichiometry N” value [2] does the source give for B4 here?
**A.** 2
